Substitutions are numbered along the chain they refer to.
B1: IGF1R-5 VHH (VHH)
VHH: QVKLEESGGGLVQAGGSLRLSCAASGRTIDNYAMAWSRQAPGKDREFVATIDWGDGGARYANSVKGRFTISRDNAKGTMYLQMNNLEPEDTAVYSCAMARQSRVNLDVARYDYWGQGTQVTVSS
notes: Llama VHH expressed in E. coli TG1 from vector pSJF2H and purified by IMAC; Monomeric by SEC; also called anti-IGF1R VHH IGF1R-5; wild-type IGF1R-5
B2: IGF1R-5_H3 (VHH)
VHH: QVQLVESGGGLVQPGGSLRLSCAASGRTIDNYAMAWSRQAPGKGLEFVATIDWGDGGTRYANSVKGRFTISRDNSKNTMYLQMNSLRAEDTAVYYCAMARQSRVNLDVARYDYWGQGTLVTVSS
notes: Humanized variant of IGF1R-5, expressed from pSJF2H in E. coli
B3: IGF1R-5_H1 (VHH)
VHH: B2 VHH with Q1E, S37V, F47W, A49S, M79L
notes: as for B2
B4: IGF1R-5_H2 (VHH)
VHH: B2 VHH with S37V, F47W
notes: Humanized variant of IGF1R-5, expressed from pSJF2H in E. coli; also called IGF1R H2
B5: IGF1R-5_H5 (VHH)
VHH: B2 VHH with G44D, L45R, N77G, Y95S
notes: as for B2
B6: IGF1R-5_H6 (VHH)
VHH: B2 VHH with Q1E, G44D, L45R, A49S, M79L
notes: as for B2

What follows are binders tested against T1, recombinant extracellular portion of human IGF1R (IGF1R^933-His fragment) (human, UniProt P08069 31-933) (assay: SPR (BIACORE 3000), human IGF1R immobilized on CM5, VHH injected, 1:1 model, 25 C).
T1 construct: It holds a furin site (RKRR) between the alpha and beta subunits, so the protein may be cleaved into two disulphide-linked chains; also called h-IGF1R; recombinant human IGF1R; not shown: His tag from vector pCDN4/myc-His
T1 sequence (P08069 31-933): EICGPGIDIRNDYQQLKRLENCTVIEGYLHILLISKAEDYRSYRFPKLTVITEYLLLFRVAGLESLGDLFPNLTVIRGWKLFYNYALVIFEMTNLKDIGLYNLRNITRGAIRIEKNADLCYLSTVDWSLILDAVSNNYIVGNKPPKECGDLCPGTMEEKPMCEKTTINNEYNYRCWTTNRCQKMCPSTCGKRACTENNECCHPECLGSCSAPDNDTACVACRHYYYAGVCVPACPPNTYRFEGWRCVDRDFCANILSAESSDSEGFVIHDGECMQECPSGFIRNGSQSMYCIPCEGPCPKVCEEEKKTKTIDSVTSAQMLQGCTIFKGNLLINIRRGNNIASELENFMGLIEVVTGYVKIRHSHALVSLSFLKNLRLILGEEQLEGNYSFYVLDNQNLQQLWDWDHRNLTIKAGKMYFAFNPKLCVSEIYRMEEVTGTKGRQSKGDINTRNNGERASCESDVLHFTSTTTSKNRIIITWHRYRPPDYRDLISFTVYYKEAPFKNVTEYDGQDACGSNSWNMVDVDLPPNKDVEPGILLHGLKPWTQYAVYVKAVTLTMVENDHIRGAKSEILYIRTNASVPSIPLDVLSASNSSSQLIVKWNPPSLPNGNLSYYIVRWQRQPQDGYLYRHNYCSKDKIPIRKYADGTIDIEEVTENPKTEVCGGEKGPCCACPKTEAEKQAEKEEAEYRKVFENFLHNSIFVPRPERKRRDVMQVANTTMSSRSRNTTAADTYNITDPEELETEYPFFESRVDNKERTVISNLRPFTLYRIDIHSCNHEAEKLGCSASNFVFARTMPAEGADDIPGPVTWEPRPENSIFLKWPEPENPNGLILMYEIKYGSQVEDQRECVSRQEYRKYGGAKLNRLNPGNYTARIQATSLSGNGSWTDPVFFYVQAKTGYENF
Procedure: Approximately 3000 Resonance Units (RU) of recombinant human IGF1R (R&D Systems) were immobilized on a Sensor chip CM5. Immobilization was carried out at a concentration of 10 μg/ml in 10 mM acetate at pH4.0 using the amine coupling kit supplied by the manufacturer. The remaining binding sites were blocked with 1M ethanolamine pH 8.5. An ethanolamine blocked surface was used as a reference surface. For the binding studies, analyses were carried out at 25° C. in 10 mM HEPES, pH7.4 containing 150 mM NaCl, 3 mM EDTA and 0.005% surfactant P20 (Polyoxyethylenesorbitan; GE Healthcare). […] Surfaces were regenerated with 10 mM glycine pH 2.0 with a contact time of 24 seconds. Data were analyzed with BIAevaluation 4.1 software (GE Healthcare).
Binder B1 has a Kd of 0.6 nM, a koff of 0.00034 s⁻¹ and a kon of 530000 M⁻¹ s⁻¹. B2 gave a Kd of 0.8 nM, a koff of 0.00041 s⁻¹ and a kon of 520000 M⁻¹ s⁻¹. For B3, the Kd was 11 nM, the koff was 0.0043 s⁻¹ and the kon was 390000 M⁻¹ s⁻¹. Binder B4 has a Kd of 7.5 nM, a koff of 0.0029 s⁻¹ and a kon of 380000 M⁻¹ s⁻¹. Binder B5 has a Kd of 1.6 nM, a koff of 0.0008 s⁻¹ and a kon of 500000 M⁻¹ s⁻¹. B6 gave a Kd of 1.7 nM, a koff of 0.00072 s⁻¹ and a kon of 430000 M⁻¹ s⁻¹.

Reference: US20170015748A1 (NATIONAL RESEARCH COUNCIL OF CANADA, published 2017)
